Source: publication PMC4971492

Biological target: Bio-GFP-tagged KIF21A STALK (whole KIF21A stalk domain) (human)
Assay: single-molecule GFP counting (TIRF); HEK293T cell extracts with Bio-GFP-tagged constructs, molecules immobilised on coverslips, initial fluorescence intensities against monomeric GFP and dimeric EB1-GFP; room temperature

Sequence of Bio-GFP-tagged KIF21A STALK (whole KIF21A stalk domain) (domain or fragment) (Q7Z4S6 whole entry, the tested form may be a part): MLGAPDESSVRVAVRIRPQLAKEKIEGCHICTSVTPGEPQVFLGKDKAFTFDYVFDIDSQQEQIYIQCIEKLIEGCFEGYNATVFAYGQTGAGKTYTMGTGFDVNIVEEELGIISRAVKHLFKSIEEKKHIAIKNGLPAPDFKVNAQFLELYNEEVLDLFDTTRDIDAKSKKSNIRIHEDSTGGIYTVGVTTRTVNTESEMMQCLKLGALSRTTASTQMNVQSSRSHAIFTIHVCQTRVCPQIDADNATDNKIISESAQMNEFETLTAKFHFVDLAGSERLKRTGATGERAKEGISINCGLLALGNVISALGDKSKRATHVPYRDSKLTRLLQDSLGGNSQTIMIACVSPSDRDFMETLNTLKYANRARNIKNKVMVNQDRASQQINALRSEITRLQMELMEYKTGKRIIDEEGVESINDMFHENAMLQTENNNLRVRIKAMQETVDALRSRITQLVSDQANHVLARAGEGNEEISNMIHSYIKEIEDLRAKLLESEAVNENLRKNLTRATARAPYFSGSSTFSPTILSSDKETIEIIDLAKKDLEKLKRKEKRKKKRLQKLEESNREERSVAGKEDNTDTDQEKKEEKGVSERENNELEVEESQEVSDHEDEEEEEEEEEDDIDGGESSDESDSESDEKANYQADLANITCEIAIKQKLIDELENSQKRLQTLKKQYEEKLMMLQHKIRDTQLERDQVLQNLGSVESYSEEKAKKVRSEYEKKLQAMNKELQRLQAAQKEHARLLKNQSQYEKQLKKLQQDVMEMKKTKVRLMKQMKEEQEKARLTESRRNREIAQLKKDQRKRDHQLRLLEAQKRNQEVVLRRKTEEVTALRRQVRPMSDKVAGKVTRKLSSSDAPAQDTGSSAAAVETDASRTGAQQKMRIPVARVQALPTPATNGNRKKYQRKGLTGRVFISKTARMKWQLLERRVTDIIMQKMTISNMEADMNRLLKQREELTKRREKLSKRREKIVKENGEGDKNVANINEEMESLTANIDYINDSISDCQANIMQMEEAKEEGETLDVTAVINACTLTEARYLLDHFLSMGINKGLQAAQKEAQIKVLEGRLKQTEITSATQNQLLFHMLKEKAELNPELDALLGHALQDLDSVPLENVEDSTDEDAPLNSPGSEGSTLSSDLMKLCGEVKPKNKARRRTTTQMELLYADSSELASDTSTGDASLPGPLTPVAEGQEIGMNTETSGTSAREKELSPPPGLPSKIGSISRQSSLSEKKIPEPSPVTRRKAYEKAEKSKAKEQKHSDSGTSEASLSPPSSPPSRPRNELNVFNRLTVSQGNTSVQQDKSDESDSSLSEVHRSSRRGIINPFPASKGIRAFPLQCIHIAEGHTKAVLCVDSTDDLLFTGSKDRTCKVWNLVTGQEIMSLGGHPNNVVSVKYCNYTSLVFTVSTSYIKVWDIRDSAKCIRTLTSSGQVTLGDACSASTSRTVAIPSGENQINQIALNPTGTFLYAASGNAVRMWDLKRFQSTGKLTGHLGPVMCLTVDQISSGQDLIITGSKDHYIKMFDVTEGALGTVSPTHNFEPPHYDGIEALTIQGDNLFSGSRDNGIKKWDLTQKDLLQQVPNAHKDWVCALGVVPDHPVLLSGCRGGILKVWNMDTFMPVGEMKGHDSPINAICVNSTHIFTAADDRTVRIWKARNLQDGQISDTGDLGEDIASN

stoichiometry N: 2
Substance: Bio-GFP-tagged KIF21A STALK (whole KIF21A stalk domain) (domain or fragment)
